Assay results reported in PMC3873461, “The CD8-Derived Chemokine XCL1/Lymphotactin Is a Conformation-Dependent, Broad-Spectrum Inhibitor of HIV-1” (PLoS Pathogens, 2013).
Positions count from the first letter of the chain named. Numbers in names are those of the source.

B1: recombinant wild type (WT) XCL1/lymphotactin (ligand, human, UniProt P47992 22-114, looked up)
chain: VGSEVSDKRTCVSLTTQRLPVSRIKTYTITEGSLRAVIFITKRGLKVCADPQATWVRDVVRSMDRKSNTRNNMIQTKPTGTQQSTNTAVTLTG
notes: also called XCL1 WT
B2: XCL1 W55D, variant that preferentially adopts the all-β, alternatively-folded dimeric structure (ligand, human, UniProt P47992 22-114, looked up)
chain: B1 chain with W55D

Molecular target: T1, purified YU2 gp120 protein (HIV-1 external envelope glycoprotein) (HIV-1 (strain YU2), UniProt P35961 32-498)
T1 construct: also called HIV-1 envelope glycoprotein gp120; source: purified
Assay: pull-down
Details: both partners purified

Row | Binder | binding result
1 | B1 | binds
2 | B2 | binds
